Assay [1] addresses T1, mature myostatin (recombinant, dimeric) (mouse polyprotein used for in-house …, UniProt O08689 268-376).
T1 construct: also called GDF-8; recombinant myostatin
T1 sequence: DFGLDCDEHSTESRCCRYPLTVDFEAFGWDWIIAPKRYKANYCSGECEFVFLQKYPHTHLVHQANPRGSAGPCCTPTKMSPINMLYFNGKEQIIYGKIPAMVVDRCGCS
As to the kind of experiment: FORTEbio bio-layer interferometry, myostatin amine-coupled to sensor, 20 nM antibody, 1:1 fit. The method, then:
The affinity of 10B3 mouse parental and H2L2-C91S developability variant for recombinant myostatin was also assessed by FORTEbio™ (bio-layer inferometry) analysis. FORTEbio™ analyses were carried out by antigen capture. Myostatin (in-house, see above at 1.1) was coupled onto amine reactive biosensors by primary amine coupling in accordance with the manufacturer's instructions. Antibodies were then captured onto this surface at 20 nM concentrations. The data was analysed using the evaluation software inherent in the machine and the data analysed using 1:1 fit (see Table 16). Due to the limited number of myostatin molecules bound to the sensor surface and the low antibody concentration, avidity effects are reduced, enabling a more accurate measure of affinity compared to the Biacore analyses. […] However, due to the nature of the binding of the antibodies to myostatin, these values are mainly used for ranking purposes, and the affinity may not be representative of the affinity in vivo.
For orientation: BLI is a label-free optical method that tracks binding on a fibre tip over time.

Assay [2] deals with T2, artificial myostatin linear peptide 39 (SMILES …).
T2 construct: also called Peptide No 39
T2 peptide: Biotin-SGSGTKMSPINMLYFNGK-NH2
The assay is described as follows: SRU BIND reader, peptides captured on streptavidin biosensor plate. Here is the method: (§1) Work was carried out on an SRU BIND reader (SRU Biosystems). A streptavidin biosensor plate was washed, a baseline reading taken, and biotinylated peptides captured onto the streptavidin coated biosensor plate. The plate was washed again, and a new baseline reading taken, antibody was then added and binding monitored.

Assay [3] deals with T3, artificial myostatin linear peptide 29 (SMILES …).
T3 construct: also called Peptide No 29
T3 peptide: Biotin-SGSGHTHLVHQANPRGSA-NH2
The description is as above. Here is the method:
as §1

Assay [4] deals with T4, artificial myostatin linear peptide 11 (SMILES …).
T4 construct: also called Peptide No 11
T4 peptide: Biotin-SGSGTVDFEAFGWDWIIA-NH2
Described as above. Here is the method: as §1

In assay [5] the target is T5, artificial myostatin linear peptide 1 (not fully specified).
T5 construct: also called Peptide No 1
T5 peptide: H-DFGLDCDEHSTESRGSG-NH2
Described as above. Here is the method: as §1

In assay [6] the target is T6, artificial myostatin linear peptide 7 (cysteine pairing not given here).
T6 construct: also called Peptide No 7
T6 peptide: Biotin-SGSGSRCCRYPLTVDFEA-NH2
The assay is described as above. The method, then: as §1

Assay [7] concerns the target T7, artificial myostatin linear peptide 25 (SMILES …).
T7 construct: also called Peptide No 25
T7 peptide: Biotin-SGSGFVFLQKYPHTHLVH-NH2
The description is as above. The method, then:
as §1

Assay [8] addresses T8, artificial myostatin linear peptide 35 (cysteine pairing not given here).
T8 construct: also called Peptide No 35
T8 peptide: Biotin-SGSGSAGPCCTPTKMSPI-NH2
The assay is described as above. Here is the method:
as §1

Assay [9] deals with T9, artificial myostatin linear peptide 43 (SMILES …).
T9 construct: also called Peptide No 43
T9 peptide: Biotin-SGSGLYFNGKEQIIYGKI-NH2
Described as above. Here is the method:
as §1

The target of assay [10] is T10, artificial myostatin linear peptide 15 (SMILES …).
T10 construct: also called Peptide No 15
T10 peptide: Biotin-SGSGWDWIIAPKRYKANY-NH2
Described as above. Here is the method: as §1

Assay [11] has as its target T11, artificial myostatin linear peptide 19 (cysteine pairing not given here).
T11 construct: also called Peptide No 19
T11 peptide: Biotin-SGSGRYKANYCSGECEFV-NH2
The assay is described as above. The method, then:
as §1

For assay [12], the target named is T12, artificial myostatin linear peptide 33 (cysteine pairing not given here).
T12 construct: also called Peptide No 33
T12 peptide: Biotin-SGSGNPRGSAGPCCTPTK-NH2
The description is as above. Here is the method: as §1

For assay [13], the target named is T13, artificial myostatin linear peptide 21 (cysteine pairing not given here).
T13 construct: also called Peptide No 21
T13 peptide: Biotin-SGSGNYCSGECEFVFLQK-NH2
The assay is described as above. Here is the method: as §1

Assay [14] has as its target T14, artificial myostatin linear peptide 37 (cysteine pairing not given here).
T14 construct: also called Peptide No 37
T14 peptide: Biotin-SGSGCCTPTKMSPINMLY-NH2
The description is as above. The method, then: as §1

Assay [15] deals with T15, artificial myostatin linear peptide 41 (SMILES …).
T15 construct: also called Peptide No 41
T15 peptide: Biotin-SGSGPINMLYFNGKEQII-NH2
The assay is described as above. The method, then:
as §1

The target of assay [16] is T16, artificial myostatin linear peptide 17 (SMILES …).
T16 construct: also called Peptide No 17
T16 peptide: Biotin-SGSGIAPKRYKANYCSGE-NH2
The description is as above. Here is the method:
as §1

For assay [17], the target named is T17, artificial myostatin linear peptide 47 (SMILES …).
T17 construct: also called Peptide No 47
T17 peptide: Biotin-SGSGIIYGKIPAMVVDRC-NH2
The assay is described as above. Here is the method:
as §1

For assay [18], the target named is T18, artificial myostatin linear peptide 13 (SMILES …).
T18 construct: also called Peptide No 13
T18 peptide: Biotin-SGSGEAFGWDWIIAPKRY-NH2
The description is as above. The method, then: as §1

Assay [19] deals with T19, artificial myostatin linear peptide 27 (SMILES …).
T19 construct: also called Peptide No 27
T19 peptide: Biotin-SGSGQKYPHTHLVHQANP-NH2
Described as above. The method, then: as §1

For assay [20], the target named is T20, artificial myostatin linear peptide 31 (cysteine pairing not given here).
T20 construct: also called Peptide No 31
T20 peptide: Biotin-SGSGVHQANPRGSAGPCC-NH2
The assay is described as above. Here is the method:
as §1

The target of assay [21] is T1, mature myostatin (recombinant, dimeric). As to the kind of experiment: BIAcore T100, antibody captured on anti-mouse IgG (C1 chip), myostatin analyte, all curves 1:1 model. The method, then:
The affinity of 10B3 mouse parental and 10B3C for recombinant myostatin was assessed by BIAcore™ (surface plasmon resonance) analysis. Analysis was carried out by the use of a capture surface: anti-mouse IgG was coupled to a C1 chip by primary amine coupling for 10B3 mouse parental; and a protein A surface was created on a C1 chip by primary amine coupling for 10B3 chimera.
After capture, recombinant myostatin was passed over the surface at 64 nM, 16 nM, 4 nM, 1 nM, 0.25 nM and 0.0625 nM, with a buffer injection (i.e. 0 nM) used for double referencing. There was a regeneration step between each analyte injection, after which the new antibody capture event occurred before the next injection of myostatin. The data was analysed using both the 1:1 model and the Bivalent model inherent to the T100 machines analysis software (see Table 6). Both capture surfaces could be regenerated using 100 mM phosphoric acid, the work was carried out using HBS-EP as the running buffer and using 25° C. as the analysis temperature.

* marks the point of attachment. Biotin = O=C1N[C@H]2[C@H](CS[C@H]2CCCCC(=O)*)N1

B1: mouse monoclonal antibody 10B3 (antibody, V domains shown)
VH: EVQLQQSGPELVKPGASVKISCKASGYSFTGYFMHWVKQSHGNILDWIGNIYPYNGVSNYNQRFKAKATLTVDKSSSTAYMELRSLTSEDSAVYYCARRYYYGTGPADWYFDVWGTGTTVTVSS
VL: DIKMTQSPSSMYASLRERVTITCKASQDINSYLSWFQQKPGKSPKTLIYRANRLVDGVPSRFSGSGSGQDYSLTISSLEYEDMGIYYCLQCDEFPLTFGAGTKLELK
notes: Mouse IgG2a/kappa from hybridoma; also called 10B3 mouse parental; 10B3 parental
One may read the Kd as a measure of binding affinity in units of concentration. The term koff denotes a measure of how fast the partners let go of each other. Usually kon stands for a measure of how fast the partners come together. Turning to B1, the Kd is 0.31 nM in [1] and 1 nM in assay [21]. The koff in assay [1] came to 0.000131 s⁻¹. For the same molecule, the kon in [1] worked out at 424000 M⁻¹ s⁻¹. In addition, the binding result in assay [2], in assay [3], in [4], in assay [5], in assay [6] and in [7] was “no binding” in each case. In addition, the binding result in assay [8], in [9], in assay [10], in assay [11], in assay [12] and in [13] was “no binding” in each case. Moreover, the binding result in assay [14], in assay [15], in assay [16], in assay [17], in assay [18] and in [19] was “no binding” each time. For the same molecule, in [20], the binding result was “no binding”.

The values above are taken from patent publication US20110256132A1 (published 2011).
